Entries after “also recorded” stand apart in the source; their conditions may differ.
B1: lunasin-containing complex: lunasin polypeptide of SEQ ID NO: 2 linked by disulfide bridges to a second polypeptide of SEQ ID NO: 3, 14.1 kDa, from soybean (protein)
chain 1: SKWQHQQDSCRKQLQGVNLTPCEKHIMEKIQGRGDDDDDDDDDN
chain 2: EGKDEDEEEEGHMQKCCTEMSELRSPKCQCKALQKIMENQSEELEEKQKKKMEKELINLATMCRFGPMIQCDLSSDD
modifications: disulfide-linked complex; Glycine max

Key:
[1] = test system: SK-BR-3 human breast cancer cells; assay: MTS cell proliferation assay, lunasin in combination with curcumin; format: cell-based; details: FIG. 7; for effect on the antiproliferative effect of curcumin: SK-BR-3 breast cancer cells, in combination with curcumin
Protocol: FIGS. 7A and 7B include the results of MTS cell proliferation assays, using SK-BR-3 human breast cancer cells, performed in the absence or presence of either synthetic lunasin or purified soybean-derived lunasin in combination with curcumin over a 1-3 day period.
MTS cell proliferation assays using SK-BR-3 human breast cancer cells were performed in the absence or presence of either synthetic lunasin or purified soybean-derived lunasin in combination with curcumin over a 2-3 day period. SK-BR-3 cells, whose growth were unaffected by lunasin alone, were inhibited up to 98% when combined with curcumin.
With reference to FIG. 7, synthetic lunasin and highly purified soybean-derived lunasin were used in combination with curcumin in an in vitro cell proliferation assays to assess the activity of lunasin against specific cancer cell lines.

human histone H3 (hH3.3) = human histone H3 (hH3.3) (Homo sapiens, UniProt P84243); assay: in vitro histone binding assay (microtiter plate, anti-lunasin antibody, absorbance at 450 nm); details: FIG. 3
Description: (§1) The ability of lunasin, purified from soybean white flake in accordance with the presently-disclosed subject matter, to bind the cores histones H3 and H4 was studied. […] To confirm the biological activity of the lunasin purified from soybean white flake using the methods in the subject matter disclosed herein, an in vitro binding assay was used to assess binding to the human H3 and H4 proteins.
(§2) Increasing amounts of histone 3.3 (hH3.3) and histone 4 (hH4) were bound to wells of a […] microtiter plate. Different amounts of either synthetic lunasin or purified lunasin were added to the wells and allowed to bind. The concentration of lunasin bound was determined using a polyclonal antibody against lunasin and a horseradish peroxidase conjugated antibody that recognizes the lunasin antibody. Binding was quantitated by measuring the absorbance at 450 nm.

human histone H4 (hH4) = human histone H4 (hH4) (Homo sapiens, UniProt P62805); assay: as above; details: FIG. 3
Description: as §1, §2

[2] = test system: H1299, non-small cell lung cancer; assay: MTS cell proliferation assay; format: cell-based, human; details: lunasin 30 or 100 μM, complex 10 or 30 μM, 72 hours, FIG. 4
Protocol: (§3) The ability of lunasin, purified from soybean white flake in accordance with the presently-disclosed subject matter, to inhibit the proliferation of specific cancer cell lines was studied. Recent studies have shown that lunasin and lunasin-containing protein preparations can inhibit the proliferation of several cancer cell lines in vitro. To further assess and confirm the biological activity of lunasin and the lunasin-containing complex, cell proliferation assays were conducted with a panel of established cancer cell lines.
(§4) A panel of cancer cell lines was collected from colleagues or purchased from the American Type Culture Collection. Cells were grown in the appropriate medium and treated with PBS (control), lunasin (30 or 100 μM), or the lunasin-containing complex (10 or 30 μM) for 72 hours. Cell viability was assessed using a standard [3-(4,5-dimethylthiazol-2-yl)-5-(3-carboxymethoxy-phenyl)-2-(4-sulfo-phenyl)-2H-tetrazolium (MTS) assay. The data shown (FIG. 4) represent the number of viable cells relative to the PBS-treated controls. The human cell lines tested were: H661, non-small cell lung cancer; H1299, non-small cell lung cancer; SKBR3, adenocarcinoma mammary gland origin; MDA-MB-231, adenocarcinoma, mammary gland origin; MCF-7, adenocarcinoma, mammary gland origin; and HT-29, adenocarcinoma, colon origin.

[3] = test system: MDA-MB-231, adenocarcinoma, mammary gland origin; assay: MTS cell proliferation assay; format: cell-based, human; details: lunasin 30 or 100 μM, complex 10 or 30 μM, 72 hours, FIG. 4
Protocol: as §3, §4

[4] = test system: H661, non-small cell lung cancer; assay: MTS cell proliferation assay; format: cell-based, human; details: lunasin 30 or 100 μM, complex 10 or 30 μM, 72 hours, FIG. 4
Protocol: as §3, §4

[5] = test system: panel of cancer cell lines; assay: MTS cell proliferation assays with a panel of established cancer cell lines; format: cell-based, human; details: 72 hours, FIG. 4
Protocol: as §3, §4

[6] = test system: HT-29, adenocarcinoma, colon origin; assay: MTS cell proliferation assay; format: cell-based, human; details: complex 10 or 30 μM, 72 hours, FIG. 4
Protocol: as §3, §4

[7] = test system: SKBR3, adenocarcinoma mammary gland origin; assay: MTS cell proliferation assay; format: cell-based, human; details: complex 10 or 30 μM, 72 hours, FIG. 4
Protocol: as §3, §4

[8] = test system: MCF-7, adenocarcinoma, mammary gland origin; assay: MTS cell proliferation assay; format: cell-based, human; details: complex 10 or 30 μM, 72 hours, FIG. 4
Protocol: as §3, §4

preference of binding, H4 versus H3 (human histone H4 (hH4))	Molecule	growth of SK-BR-3 cells, lunasin alone ([1]; without curcumin, 2-3 day period)	effect on the antiproliferative effect of curcumin [1]	binding to human histone H3 (human histone H3 (hH3.3))	binding to human histone H4 (human histone H4 (hH4))	growth/proliferation of H1299 cells (viable cells relative to PBS-treated controls) [2]	growth/proliferation of MDA-MB-231 cells (viable cells relative to PBS-treated controls) [3]	growth/proliferation of H661 cells (viable cells relative to PBS-treated controls) [4]	antiproliferative effectiveness compared with lunasin peptide alone [5]	proliferation of HT-29 cells (viable cells relative to PBS-treated controls) [6]	proliferation of SKBR3 cells (viable cells relative to PBS-treated controls) [7]	proliferation of MCF-7 cells (viable cells relative to PBS-treated controls) [8]
–	lunasin	unaffected	–	–	–	–	–	–	–	–	–	–
more binding to H4 compared to H3	synthetic lunasin: synthetic lunasin created by peptide synthesis, comprised of SEQ ID NO: 1 [reference compound]	–	significantly enhanced the antiproliferative effect of curcumin	binding was lower than observed using the soybean-derived lunasin	binding was lower than observed using the soybean-derived lunasin	–	–	–	–	–	–	–
higher affinity for H4 than for H3	soybean-derived lunasin: lunasin polypeptide purified from soybean white flake, 5139.25 Da, corresponding to SEQ ID NO: 2 (additional C-terminal Asn) (SKWQHQQDSCRKQLQGVNLTPCEKHIMEKIQGRGDDDDDDDDDN; Glycine max)	–	significantly enhanced the antiproliferative effect of curcumin	affinity greater than that observed using a synthetic lunasin; also recorded: bound to both H4 and H3 in a dose dependent manner	affinity greater than that observed using a synthetic lunasin; also recorded: bound to both H4 and H3 in a dose dependent manner	minor effect	minor effect	significantly inhibit the growth	–	–	–	–
–	B1	–	–	–	–	most sensitive	most sensitive	most sensitive	more effective than the lunasin peptide alone	reduced proliferation	reduced proliferation	reduced proliferation

Reference: patent publication US9066906B2, “Lunasin-containing complex and purification of lunasin from plants” (University of Louisville Research Foundation, Inc., priority 2009, dated 2015)
